The source of these data is patent publication US20260048158A1 (AKTIS ONCOLOGY, published 2026).

Substitutions are numbered along the chain they refer to. Primed or numbered codes have the meaning given here. The star is where a group is joined. Biotin = O=C1N[C@H]2[C@H](CS[C@H]2CCCCC(=O)*)N1; PEG4′ = not defined here

Sequences and labels used below:
B1: Compound C234 (designed binder)
chain: CAXEKIAALSEIIWLPCLTYAQIXAFIAALNDDPCQSSEILSEAKELCS
modifications: (Kme3) trimethyllysine at 3; (Kme2) dimethyllysine at 24; N-terminal Biotin-PEG4; C-terminal NH2; two disulfide bridges among Cys1, Cys17, Cys35, Cys48
notes: also called C298
B2: Compound C308 (designed binder)
chain: B1 chain with A29X, D32X, K45X
modifications: (Kme3) at 3; (Kme) at 24, 29, 32 and 45; N-terminal Biotin-PEG4; C-terminal NH2; two disulfide bridges among Cys1, Cys17, Cys35, Cys48
B3: Compound C304 (designed binder)
chain: B1 chain with K45X
modifications: (Kme3) at 3; (Kme) at 24 and 45; N-terminal Biotin-PEG4; C-terminal NH2; two disulfide bridges among Cys1, Cys17, Cys35, Cys48
B4: Compound C302 (designed binder)
chain: B1 chain with X3R, S38A, E39N, K45X
modifications: (Kme) monomethyllysine at 24 and 45; N-terminal Biotin-PEG4; C-terminal NH2; two disulfide bridges among Cys1, Cys17, Cys35, Cys48
B5: Compound C306 (designed binder)
chain: B1 chain with A28X, K45X
modifications: (Kme3) at 3; (Kme) at 24, 28 and 45; N-terminal Biotin-PEG4; C-terminal NH2; two disulfide bridges among Cys1, Cys17, Cys35, Cys48
B6: Compound C318 (designed binder)
chain: B1 chain with A29X, D32X, K45X
modifications: (Kme3) at 3; (Kme2) at 24; (Kme) at 29 and 45; (Cit) citrulline at 32; N-terminal Biotin-PEG4; C-terminal NH2; two disulfide bridges among Cys1, Cys17, Cys35, Cys48
B7: Compound C300 (designed binder)
chain: B1 chain with X3R, S38A
modifications: (Kme2) at 24; N-terminal Biotin-PEG4; C-terminal NH2; two disulfide bridges among Cys1, Cys17, Cys35, Cys48
B8: Compound C312 (designed binder)
chain: B1 chain with Q36N, K45X
modifications: (Kme3) at 3; (Kme) at 24 and 45; N-terminal Biotin-PEG4; C-terminal NH2; two disulfide bridges among Cys1, Cys17, Cys35, Cys48
B9: Compound C310 (designed binder)
chain: B1 chain with T19N, K45X
modifications: (Kme3) at 3; (Kme) at 24 and 45; N-terminal Biotin-PEG4; C-terminal NH2; two disulfide bridges among Cys1, Cys17, Cys35, Cys48
B10: Compound C316 (designed binder)
chain: B1 chain with A29R, S38A, K45X
modifications: (Rme) methylated arginine at 3; (Kme) at 24 and 45; N-terminal Biotin-PEG4; C-terminal NH2; two disulfide bridges among Cys1, Cys17, Cys35, Cys48
B11: Compound C608 (designed binder)
chain: B1 chain with E11X, Q36N, K45X
modifications: (Kme3) at 3; (E(CO-)) at 11 and (K(NH-)) at 45 joined by a lactam bridge; (Kme) at 24; N-terminal Biotin-PEG4; C-terminal NH2; two disulfide bridges
notes: Three constraints (two disulfide bridges, one lactam bridge)
B12: Compound C245 (designed binder)
chain: CAKEKIAALSEIIWLPCLTYAQIXAFIAALNDDPCQSSELLSEAKELNDSQCP
modifications: (homo-leucine) at 24; N-terminal Biotin-PEG4; C-terminal NH2; disulfide bridges between cysteine pairs (Cys1-Cys35 and Cys17-Cys52 named for SEQ ID NO: 213)
B13: Compound C253 (designed binder)
chain: B12 chain
modifications: (Kme2) at 24; N-terminal Biotin-PEG4; C-terminal NH2; disulfide bridges between cysteine pairs
B14: Compound C255 (designed binder)
chain: B12 chain
modifications: (Kme3) at 24; N-terminal Biotin-PEG4; C-terminal NH2; disulfide bridges between cysteine pairs

The target of the first test is T1, His-tagged B7-H3 protein (ThermoFisher, catalog #B7-H3_NP_001019907) (Homo sapiens (Human), UniProt Q5ZPR3 29-466).
T1 construct: Bought protein immobilised for SPR; also called ligand; target protein; not shown: His tag
T1 sequence: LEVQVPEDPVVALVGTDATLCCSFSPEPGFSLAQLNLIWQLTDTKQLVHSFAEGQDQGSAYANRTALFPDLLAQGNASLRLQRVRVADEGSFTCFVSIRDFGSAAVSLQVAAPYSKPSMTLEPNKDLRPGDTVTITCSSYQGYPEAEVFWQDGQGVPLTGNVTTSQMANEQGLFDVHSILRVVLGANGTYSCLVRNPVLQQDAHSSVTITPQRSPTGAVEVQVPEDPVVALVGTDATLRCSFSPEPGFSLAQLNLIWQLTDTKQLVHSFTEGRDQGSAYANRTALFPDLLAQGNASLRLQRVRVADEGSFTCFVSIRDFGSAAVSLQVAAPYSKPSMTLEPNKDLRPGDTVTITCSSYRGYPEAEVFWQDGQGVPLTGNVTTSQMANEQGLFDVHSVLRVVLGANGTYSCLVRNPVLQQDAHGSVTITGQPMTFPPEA
Briefly: SPR (as in Example 2). Here is the method: Surface plasmon resonance (SPR) analyses were performed using Biacore T200 (GE Healthcare). His-tagged B7-H3 protein (ThermoFisher, catalog #B7-H3_NP_001019907), (“ligand”) was immobilized to a Series S NTA chip (Cytiva #28994951). Running buffer was 0.05% Surfactant P20 in HEPES buffered saline (HBS-P), pH 7.4 (Cytiva). Immobilization was performed at 25° C. […] Pulsatile injections were made to target a specific immobilization level. […] Increase in signal (RU) is proportional to an increase in binding events between the analyte and ligand surface. Then injection was then stopped, and dissociation was measured. The resulting sensorgram is reference surface and blank injection subtracted prior to curve fitting. […] KD was calculated using a 1:1 binding model at 25° C.
(§1) Equilibrium binding affinity (KD) was determined using SPR (as in Example 2) or a live cell binding assay (DELFIA) on MCF7 cells that express B7-H3. Binding inhibition constant (Kᵢ) of miniprotein ligands was also determined using MCF7 cells expressing a B7-H3. Cells were dispensed into a 384-well plate and incubated at 37° C. in 5% CO₂ overnight.
In the case of B1, binding was put at a Kd of 1.36 nM. B2: the Kd was 0.482 nM. The same measure, in the same setting: to B3 belongs 1.43 nM. On the same count and under the same terms, to B4 belongs 0.558 nM; to B5, 0.761 nM. The same measure, in the same setting: to B6 belongs 1.24 nM; to B7, 0.506 nM. B8 registered a dissociation constant (Kd) of 0.485 nM. Same read-out and setting: to B9 belongs 0.782 nM. On to B10, for which the Kd was found to be 0.621 nM.

The target in a further test is T2, B7-H3 expressed on the surface of cells (MCF7 cells; B7-H3-expressing cancer cells) (Homo sapiens (Human), UniProt Q5ZPR3 29-534).
T2 construct: Endogenous B7-H3 on MCF7 cells (DELFIA) and on an unnamed cancer cell line (flow cytometry); also called CD276
T2 sequence: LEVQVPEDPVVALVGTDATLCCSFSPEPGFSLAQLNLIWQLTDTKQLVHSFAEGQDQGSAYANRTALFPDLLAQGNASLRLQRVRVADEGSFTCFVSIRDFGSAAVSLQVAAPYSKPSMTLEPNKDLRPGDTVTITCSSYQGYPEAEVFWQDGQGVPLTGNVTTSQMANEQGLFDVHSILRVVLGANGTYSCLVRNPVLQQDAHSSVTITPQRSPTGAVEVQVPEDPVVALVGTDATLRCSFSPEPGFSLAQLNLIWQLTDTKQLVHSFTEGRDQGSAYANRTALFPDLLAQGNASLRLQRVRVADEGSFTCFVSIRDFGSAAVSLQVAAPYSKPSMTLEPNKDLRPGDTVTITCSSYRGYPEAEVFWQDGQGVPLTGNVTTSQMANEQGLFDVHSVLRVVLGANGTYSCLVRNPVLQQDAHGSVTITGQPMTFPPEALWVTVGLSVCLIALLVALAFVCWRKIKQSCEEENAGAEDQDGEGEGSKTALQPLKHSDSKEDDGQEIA
Briefly: DELFIA competition on live MCF7 cells expressing B7-H3; fixed tracer: europium-chelate miniprotein. Here is the method: as §1
(§2) The plate was incubated for 1.5 h at room temperature to reach equilibrium. Cells were then washed to remove unbound ligand and treated according to manufacturer instructions for a DELFIA® (dissociation-enhanced lanthanide fluorescent immunoassay, Revvity Health Sciences). In brief, 2 M HCl was added to each well and incubated for 2 h at 37° C. Following this step, 2 M NaOH and fluorescent inducer solution were added to each well and incubated for 30 minutes at room temperature. Plates were read on an Envision plate reader and a curve-fitting model was applied to estimate KD and Kᵢ values.
Regarding B1, the affinity corresponds to a Ki of 1.72 nM. On the same count and under the same terms, to B2 belongs 0.872 nM; to B3, 2.24 nM; to B4, 1.34 nM. On to B5, for which the affinity corresponds to a Ki of 1.24 nM.

With B11, the Ki was found to be 3.58 nM. The same measure, in the same setting: to B6 belongs 1.24 nM. Same read-out and setting: to B7 belongs 1.91 nM. Still for that read-out and setting: to B8 belongs 1.01 nM; to B9, 0.886 nM. As to B10, the Ki is 0.873 nM.

Another test concerns the target T2, B7-H3 expressed on the surface of cells …. Briefly: DELFIA competition on cells expressing B7-H3 (as in Example 14); competitor: europium-chelate miniprotein tracer.
As to {Biotin-PEG4′}-CAREKIAALSEIIWLPCLTYAQIQAFIAALNDDPCQSSEILSEAKELCS-NH2 (designed binder, disulfide (positions not given here)) [Compound C290], the Ki amounted to 13.8 nM. Same read-out and setting: to {Biotin-PEG4′}-CAREKIAALSEIIWLPCLTYAQIKAFIAALNDDPCQSSEILSEAKELCS-NH2 (designed binder, disulfide (positions not given here)) [Compound C284] belongs 2.02 nM. On the same count and under the same terms, to {Biotin-PEG4′}-CAREKIAALSEIIWLPCLTYAQIVAFIAALNDDPCQSSEILSEAKELCS-NH2 (designed binder, disulfide (positions not given here)) [Compound C291] belongs 7.7 nM; to {Biotin-PEG4′}-CAREKIAALSEIIWLPCLTYAQILAFIAALNDDPCQSSEILSEAKELCS-NH2 (designed binder, disulfide (positions not given here)) [Compound C286], 23.9 nM. As for B12, the Ki was 2.8 nM.

In the case of B13, the Ki was 5.36 nM. Still for that read-out and setting: to B14 belongs 8.75 nM; to CAREKIAALSEIIWLPCLTYAQIXAFIAALNDDPCQSSEILSEAKELCS (designed binder, (Kme2) at 24; N-terminal Biotin-PEG4; C-terminal NH2; two disulfide bridges) [Compound C275], 1.42 nM.

A further test shares this target. The test can be described thus: DELFIA competition assay on live MCF7 cells expressing B7-H3; the unlabeled competing ligand is varied against a fixed concentration of the europium-chelate miniprotein tracer. The procedure: as §1, §2
As for B1, the “IC50 (read off the curve)” value is around 3 nM.

The target is the same in a further test. The test can be described thus: DELFIA on-cell competition assay on MCF7 cells (FIG. 15); single experiment of FIG. 15. The procedure:
as §1, §2
B1 yielded a Ki of around 1.36 nM.
